Results: US8703915B2, “Mutant proteins and methods for producing them” (Heptares Therapeutics Limited, priority 2009, dated 2014)

Tests used:
[1] = test system: A2A receptor; experiment: cAMP functional assay (HTRF), NECA stimulation of CHO cells over-expressing A2A receptor; type: cell-based, human; conditions: intracellular cAMP, CHO cells
Protocol: (§1) In order to stabilise an agonist-bound conformation, a systematic Alanine-scan was performed in order to identify mutations that may stabilise the A2A receptor bound to its full agonist NECA. In this A2A agonist-bound study, L2.46 (L48A) is the most stabilising single mutant. When NECA is bound to the solubilised receptor, removing the L48 side chain (in A2A-L48A) dramatically increases the thermostability of the ligand-receptor complex resulting in an increase of 14° C. over the wild type receptor in the detergent DDM (FIG. 5a). […] We evaluated the signalling property of the A2A receptor by over-expressing the receptor in CHO cells. A2A agonist stimulation triggers the signal transduction through the Gs-trimeric complex and increases the intracellular cAMP level. The increase in intracellular cAMP can be detected by and quantified by using an anti-cAMP Mab antibody competition assay. […] However the signalling efficacy is reduced to 30% (FIG. 6).
This assay takes advantage of Homogeneous Time-Resolved Fluorescence (HTRF) using cAMP labeled with the dye d2 in presence of an anti-cAMP Mab labeled with Cryptate. The method is based on a competitive immunoassay between cAMP produced by cells and the cAMP labeled with the dye d2. CHO cells were grown using Glutamax Ham's F12, 10% FBS in 96-well plates, clear bottom and Black wall (Costar). Cells were seeded at a density of 12500 cells per well, grown overnight, washed with PBS and then transfected with 100 ng of pcDNA-3-A2A(2-316) pre-incubated with 0.3 μL of GeneJuice (Novagen) per well. After 48 hours of receptor expression, the medium was removed, the cells were washed in PBS then stimulated by using different NECA concentrations, in the presence of Rolipram (50 μM) and Adenosine deaminase in a total volume of 50 μL for 30 minutes. Dilution was realised in Hamf's F12/cAMP-d2 conjugate according to the manufacturer protocol, without serum. […] The plate was incubated at room temperature for 1 hour and then read using the Pherastar 96-well time-resolved fluorescence plate reader (Ex 340 nm; Em 665/620 nm).

[2] = target: T1, A2A receptor (Homo sapiens, UniProt P29274); experiment: Thermostability of A2A receptor in ZM241385 antagonist-bound state, solubilised in DDM; type: physicochemical; conditions: ZM antagonist bound state (100 nM)
T1 construct: A2AR-(2-316) expression was carried out by using the pRG/III-hs-MBP E. coli expression vector; MBP (named only in the vector name); made in house; host or cells: E. coli DH5alpha
Protocol: as §1
A2AR-(2-316) expression was carried out by using the pRG/III-hs-MBP E. coli expression vector and DH5α cells. Cells were grown at 37° C. in 2 L flasks containing 500 mL of 2×TY medium supplemented with Ampicillin (100 μg/mL) and glucose (0.2% w/v). At OD600≈0.7, IPTG and theophylline were added at final concentrations respectively of 0.5 mM and 100 μM, and the temperature was reduced to 20° C. […]

[3] = test system: A2A receptor; experiment: Thermostability of A2A receptor in NECA agonist-bound state, solubilised in DDM; type: physicochemical, human; conditions: NECA agonist-bound state (400 nM), solubilised in DDM
Protocol: as §1
A2AR-(2-316) expression was carried out by using the pRG/III-hs-MBP E. coli expression vector and DH5α cells. Cells were grown at 37° C. in 2 L flasks containing 500 mL of 2×TY medium supplemented with Ampicillin (100 μg/mL) and glucose (0.2% w/v). At OD600≈0.7, IPTG and theophylline were added at final concentrations respectively of 0.5 mM and 100 μM, and the temperature was reduced to 20° C. After 22 to 24 hours, cells were harvested in aliquots of 14 mL, centrifuged for 30 min and stored at −20° C. Both 5HT2C and M4 receptors were transiently expressed in HEK293T cells using GeneJuice transfection reagent used according to the manufacturers guidelines.
An aliquot of E. coli cells expressing wild type or mutant A2AR-(2-316) (14 mL) was thawed on ice and cells were resuspended in 500 μL of buffer A (50 mM Tris HCl mM/pH 7.4; 0.4 M NaCl, 250 μg/mL lysozyme (Sigma), 1 mg/mL DNAse I (Sigma), supplemented with complete EDTA-free Protease inhibitor cocktail (Roche)) and incubated 1 hour at 4° C. Samples were then sonicated 1 min at 4° C. using a cup-horn sonicator. […]

[4] = test system: adenosine A2A receptor; experiment: Antagonist binding to adenosine A2A NPxxY motif alanine mutants (Table 1); parameters: species or system human
Protocol: An alanine scan was carried out in a similar fashion on an adenosine A2A receptor along with the 5HT2C receptor in the presence of the antagonist Mesulergine. Both alanine scans were carried out in order to further stabilize the antagonist conformation. […] The motif in Adenosine A2A is NPFIY (SEQ ID NO: 364) and for the 5HT2C is NPLVY (SEQ ID NO: 363). Therefore mutations in this region of the receptor contain stabilising mutations specific to the agonist conformation and detrimentally effect antagonist binding.
Adenosine A2A receptor was solubilised from transiently transfected mammalian cells about 36 hours post transfection, in 50 mM Tris pH7.4/400 mM NaCl/0.5% DDM and protease inhibitor. Cell lysates were left at 4° C. on a rotator and then cleared by centrifugation at 13,200 rpm for 20 minutes at 4° C. Solubilised receptors were then purified on Ni-NTA beads and eluted with 50 mM histidine. The eluted receptor was used in radioligand binding assay. The Tm was determined by incubating 108 μl of the eluate with Zm241385 radioligand at a final concentration of 100 nM for one hour at 4° C. The six ligand incubations are then incubated at six different temperatures from 20° C. to 50° C., for thirty minutes. Receptor bound and free radioligand were separated using G25 Sephadex spin columns.

pEC50 [1]: 7.27±0.19
% of Wildtype binding ([4]; antagonist binding): 100%
DPM1 ([4]; antagonist binding, replicate 1): 13513 DPM
DPM2 ([4]; antagonist binding, replicate 2): 12949 DPM
Average - BG ([4]; average minus background): 12731
Average ([4]; average of DPM1 and DPM2): 13231
B1: A2A-WT: wild type human adenosine A2A receptor, A2AR-(2-316) (protein, UniProt P29274 2-316, looked up, fragment)
chain: PIMGSSVYITVELAIAVLAILGNVLVCWAVWLNSNLQNVTNYFVVSLAAADIAVGVLAIPFAITISTGFCAACHGCLFIACFVLVLTQSSIFSLLAIAIDRYIAIRIPLRYNGLVTGTRAKGIIAICWVLSFAIGLTPMLGWNNCGQPKEGKNHSQGCGEGQVACLFEDVVPMNYMVYFNFFACVLVPLLLMLGVYLRIFLAARRQLKQMESQPLPGERARSTLQKEVHAAKSLAIIVGLFALCWLPLHIINCFTFFCPDCSHAPLWLMYLAIVLSHTNSVVNPFIYAYRIREFRQTFRKIIRSHVLRQQEPFKA
Tm [2]: 33.0±0.7 °C
Tm [3]: 28.7±0.5 °C
